Reference: a protein production outcome set (Wang et al. 2014)

Assay: label from the status in PepcDB records

Sequence	protein production
MLLFEQPVDLEKNNEDDTNIKPFAISRHFLLKLLLCGIILIELLLYSKCPKPIDNGPRTIANRSNTYFNGTHDFKTLTILISIDGFHPRLIDAKYTPFLYNLHNLRSPYDMNITTAPYMIPSFPTQTFPNHWSMVTGKYPIEHGIVSNIFWDNFTSSEFRPNNLDARIWSNTADPIWQLLQTESQGEYKVATHMWPGSEVVYEDHGDVPRERMPFYFGKFNQWEKLQDKLAQIFRYIDMPQLKDRPELVISYIPNVDSYGHSFGYDLRDKRLQKLIGEVDGFFLDLIEGLQKRNLLKISNVMIVSDHGMSNVNANDGEHVVVWERVFPADAMSAFISHLYNEGPMMMVCLKNPRDKQWICDLIEAQLEKAYGDEISRKFHVILKEDFDPSWKYFQYDNRKHRYDDRVGDIWILADEYYAIVKEMGDVPIGIMGTHGYNFNNCSDMASIFIGMGPMFNNEVVPPFENIEVYNMLIKASALLGEEKTKKEKSLLQ	failed
MFSLRSALILALLIIASLVNTKYSLPLALLVVGLTYLLDEQRLLPYASIVSFLIPMVYPLETSYVPMIYALSSIGILASKYSRLLSSVLIILGVSILPLGDVQKYLILYLTAFLLLGVDIRGTLGGGIIMLILATQGYVPYDLAFYTILFGVLSLTTLYKIKVTRYHAIAILSAIFPLLYSYFPLPSFLVSLGSALVFPPALFSTSILLYVEGFKQGIYGLLLILLSLVYNRYEKYFRTISMVLVSAGLSIFSSVFPPLILILIVIYFLEKGKVLTYSQYFLIPLSLYLLIQGSYQSLVYSSIALIIVSTLRMILRTTDSNRFKKLVKLMNARIVGGIISLLIEIILFFIALQYLVFPLSYVALTLSVIYAVFIFRERNAFVHFSLSAVLALFFNPVFALGGIKLKDSLNVIVVALTIIMGILFSHTLYFSIISVFLSVSYLLQKFDIHDLVPLSVISIVSIIPGITWTYVLPPILLSFSYLITKKYSYELGLSSMFCIIILIHYLIV	failed
MGMAAESQFHVLAVDDSLFDRKLIERLLQKSSCQVTTVDSGSKALEFLGLRQSTDSNDPNAFSKAPVNHQVVEVNLIITDYCMPGMTGYDLLKKVKESSAFRDIPVVIMSSENVPARISRCLEEGAEEFFLKPVRLADLNKLKPHMMKTKLKNQKLEEIETTSKVENGVPTAVADPEIKDSTNIEIEILPLQQDLLLVQQEEQTLSINNKRKSVEEGISTDRARPRFDGIATAV	failed
MELQDTIFKRQSVRKFKNQDVSDEDILKMIKAAGAAPSGKNIQNWHFVVIKRRDLMEKIADVITKKQQEILVEMDKVSVDKANRFRKFVKNFTLFYLKAPVLVLVFTKVYNPSGYYELELIDAPKETIDKLFIRNPGMQSLGAAIENFTLSAIELGYGSCWLTSQNYAADEIEAVLEAETGFEKGEYFLGAMLALGVPEDNLKSPSKKPVEEICTFIK	not failed
MDKNALRKQILQKRMALSTIEKSHLDQKINQKLVAFLTPKPCIKTIALYEPIKNEVTFVDFFFEFLKINQIRAVYPKVISDTEIIFIDQETNTFEPNQIDCFLIPLVGFNKDNYRLGFGKGYYDRYLMQLTRQQPKIGIAYSFQKGDFLADPWDVQLDLIINDE	not failed
MNRINYIRQAEKKYHDLCYEQYKLFETGSWLYKPVKTVMDLMDHFEGQNNLQVLDLGSGVGRNSIPIAQQIQNTSGTVTCVDLLDSALTKLKTYTKEHGVFEVIKTEQAAIENYYIVPNTYDYIVAVSSLEHVQSEEDLTNVLHSIKEGTKTGGINCLIINSNIQEIDLHTKEELDALIEINLPTEDMIHLLKSIYKEWKEIKVEIKELVYDIVRDEKQIQLKTNAITFVVQK	failed
MESLPFVAAQPTIVPQLQQQVTGLTSSLNSQEKKELTHKLESIFNNTQVQIAVLIVSTTKDETIEQYATRVFDNWRLGDAKRNDGILIVVAWSDRTVRIQVGYGLEEKVTDALAGDIIRSNMIPAFKQQKLAKGLELAIIALNNQLTSQHQYPANPSESESTSSTDHYYFAIFWVFAVMFFPFWFFHQGSNFCRACKSGVCISAIHLLDLFLFSDKTFSIAVFSFFFTFTIFMVFTCLCVLQKRASGRSYHSDNSGSAGGSSGGASGRWLEHHHHHH	failed
MKISTKDLVLCALFAAISCVLAQISIQLPFSPVPFTMQVMAVYLAGIILGAKKGFISQLVYVVLGAIGAPVFANFTGGVGAILGPAGGFIIAFPFMALIVGCVADKCRTKAYIIISMVLASVVCYVFGALWLVLVTKISFALAIKTAVLPFILFDMLKIIIVSIIGINIRSRIISGGLA	failed
